This is an account of results in publication PMC12226651.

In assay [1] the target is dynamic microtubules grown from purified bovine brain tubulin (bovine) (UniProt Q6B856). Description: optical trap rupture force assay; kinetochores purified without benzonase, held on beads by anti-penta-His antibody via Dsn1-6His-3M3DK, attached to the tip of dynamic microtubules grown from coverslip-anchored seeds; BRB80 growth buffer, 23 °C; force raised at 0.25 pN/s until detachment.

The target is the same in assay [2]. Description: optical trap rupture force assay; kinetochores purified with benzonase, held on beads by anti-penta-His antibody via Dsn1-6His-3M3DK, attached to the tip of dynamic microtubules grown from coverslip-anchored seeds; BRB80 growth buffer, 23 °C; force raised at 0.25 pN/s until detachment.

As for “K. marxianus kinetochores purified via Dsn1-6His-3M3DK (from UniProt A0ABX6F0Z3 1-547) (complex)”, the median rupture force in assay [1] turned out to be 7.5 pN; in assay [2], 6.4 pN.
“S. cerevisiae kinetochores purified via Dsn1-6His-3M3DK (from UniProt P40568 1-576) (complex)” displayed a median rupture force in assay [1] of 7.2 pN.
